Reference: US12698494
Positions count from the first letter of the chain named. Names and notes keep the numbering of the source.

T1: FRETS-VWF73 fluorogenic substrate, P04275
T1 chain: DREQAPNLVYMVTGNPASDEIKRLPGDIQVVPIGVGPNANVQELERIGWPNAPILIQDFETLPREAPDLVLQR

B1: Full-length ADAMTS13 variant NGLY6 (636RLPRL640 to 636RNASL640) (protein)
chain: AAGGILHLELLVAVGPDVFQAHQEDTERYVLTNLNIGAELLRDPSLGAQFRVHLVKMVILTEPEGAPNITANLTSSLLSVCGWSQTINPEDDTDPGHADLVLYITRFDLELPDGNRQVRGVTQLGGACSPTWSCLITEDTGFDLGVTIAHEIGHSFGLEHDGAPGSGCGPSGHVMASDGAAPRAGLAWSPCSRRQLLSLLSAGRARCVWDPPRPQPGSAGHPPDAQPGLYYSANEQCRVAFGPKAVACTFAREHLDMCQALSCHTDPLDQSSCSRLLVPLLDGTECGVEKWCSKGRCRSLVELTPIAAVHGRWSSWGPRSPCSRSCGGGVVTRRRQCNNPRPAFGGRACVGADLQAEMCNTQACEKTQLEFMSQQCARTDGQPLRSSPGGASFYHWGAAVPHSQGDALCRHMCRAIGESFIMKRGDSFLDGTRCMPSGPREDGTLSLCVSGSCRTFGCDGRMDSQQVWDRCQVCGGDNSTCSPRKGSFTAGRAREYVTFLTVTPNLTSVYIANHRPLFTHLAVRIGGRYVVAGKMSISPNTTYPSLLEDGRVEYRVALTEDRNASLEEIRIWGPLQEDADIQVYRRYGEEYGNLTRPDITFTYFQPKPRQAWVWAAVRGPCSVSCGAGLRWVNYSCLDQARKELVETVQCQGSQQPPAWPEACVLEPCPPYWAVGDFGPCSASCGGGLRERPVRCVEAQGSLLKTLPPARCRAGAQQPAVALETCNPQPCPARWEVSEPSSCTSAGGAGLALENETCVPGADGLEAPVTEGPGSVDEKLPAPEPCVGMSCPPGWGHLDATSAGEKAPSPWGSIRTGAQAAHVWTPAAGSCSVSCGRGLMELRFLCMDSALRVPVQEELCGLASKPGSRREVCQAVPCPARWQYKLAACSVSCGRGVVRRILYCARAHGEDDGEEILLDTQCQGLPRPEPQEACSLEPCPPRWKVMSLGPCSASCGLGTARRSVACVQLDQGQDVEVDEAACAALVRPEASVPCLIADCTYRWHVGTWMECSVSCGDGIQRRRDTCLGPQAQAPVPADFCQHLPKPVTVRGCWAGPCVGQGTPSLVPHEEAAAPGRTTATPAGASLEWSQARGLLFSPAPQPRRLLPGPQENSVQSSACGRQHLEPTGTIDMRGPGQADCAVAIGRPLGEVVTLRVLESSLNCSAGDMLLLWGRLTWRKMCRKLLDMTFSSKTNTLVVRQRCGRPGGGVLLRYGSQLAPETFYRECDMQLFGPWGEIVSPSLSPATSNAGGCRLFINVAPHARIAIHALATNMGAGTEGANASYILIRDTHSLRTTAFHGQQVLYWESESSQAEMEFSEGFLKAQASLRGQYWTLQSWVPEMQDPQSWKGKEGTHHHHHH
B2: Full-length ADAMTS13 variant NGLY4 (608KMSIS612 to 608KNSTS612) (protein)
chain: B1 chain with M535N, I537T, N563L, A564P, S565R
B3: Full-length ADAMTS13 variant NGLY1 (567AREYV571 to 567ANETV571) (protein)
chain: B1 chain with R494N, Y496T, N563L, A564P, S565R
B4: Full-length ADAMTS13 variant NGLY5 (635DRLPR639 to 635DNLSR639) (protein)
chain: B1 chain with R562N, N563L, A564S, S565R
B5: Full-length ADAMTS13 variant NGLY2 (590PLFTH594 to 590PNFTH594) (protein)
chain: B1 chain with L517N, N563L, A564P, S565R
B6: Full-length wild-type ADAMTS13 (1427 amino acids) (protein)
chain: B1 chain with N563L, A564P, S565R
B7: Full-length ADAMTS13 variant NGLY3 (607GKMSI611 to 607GNMSI611; K608N) (protein)
chain: B1 chain with K534N, N563L, A564P, S565R
B8: ADAMTS13 variant NGLY3 + R568A/Y665A + L591A/R636A/L637A/L668A (protein)
chain: AAGGILHLELLVAVGPDVFQAHQEDTERYVLTNLNIGAELLRDPSLGAQFRVHLVKMVILTEPEGAPNITANLTSSLLSVCGWSQTINPEDDTDPGHADLVLYITRFDLELPDGNRQVRGVTQLGGACSPTWSCLITEDTGFDLGVTIAHEIGHSFGLEHDGAPGSGCGPSGHVMASDGAAPRAGLAWSPCSRRQLLSLLSAGRARCVWDPPRPQPGSAGHPPDAQPGLYYSANEQCRVAFGPKAVACTFAREHLDMCQALSCHTDPLDQSSCSRLLVPLLDGTECGVEKWCSKGRCRSLVELTPIAAVHGRWSSWGPRSPCSRSCGGGVVTRRRQCNNPRPAFGGRACVGADLQAEMCNTQACEKTQLEFMSQQCARTDGQPLRSSPGGASFYHWGAAVPHSQGDALCRHMCRAIGESFIMKRGDSFLDGTRCMPSGPREDGTLSLCVSGSCRTFGCDGRMDSQQVWDRCQVCGGDNSTCSPRKGSFTAGRAAEYVTFLTVTPNLTSVYIANHRPAFTHLAVRIGGRYVVAGNMSISPNTTYPSLLEDGRVEYRVALTEDAAPRLEEIRIWGPLQEDADIQVYRRYGEEAGNATRPDITFTYFQPKPRQAWVWAAVRGPCSVSCGAGLRWVNYSCLDQARKELVETVQCQGSQQPPAWPEACVLEPCPPYWAVGDFGPCSASCGGGLRERPVRCVEAQGSLLKTLPPARCRAGAQQPAVALETCNPQPCPARWEVSEPSSCTSAGGAGLALENETCVPGADGLEAPVTEGPGSVDEKLPAPEPCVGMSCPPGWGHLDATSAGEKAPSPWGSIRTGAQAAHVWTPAAGSCSVSCGRGLMELRFLCMDSALRVPVQEELCGLASKPGSRREVCQAVPCPARWQYKLAACSVSCGRGVVRRILYCARAHGEDDGEEILLDTQCQGLPRPEPQEACSLEPCPPRWKVMSLGPCSASCGLGTARRSVACVQLDQGQDVEVDEAACAALVRPEASVPCLIADCTYRWHVGTWMECSVSCGDGIQRRRDTCLGPQAQAPVPADFCQHLPKPVTVRGCWAGPCVGQGTPSLVPHEEAAAPGRTTATPAGASLEWSQARGLLFSPAPQPRRLLPGPQENSVQSSACGRQHLEPTGTIDMRGPGQADCAVAIGRPLGEVVTLRVLESSLNCSAGDMLLLWGRLTWRKMCRKLLDMTFSSKTNTLVVRQRCGRPGGGVLLRYGSQLAPETFYRECDMQLFGPWGEIVSPSLSPATSNAGGCRLFINVAPHARIAIHALATNMGAGTEGANASYILIRDTHSLRTTAFHGQQVLYWESESSQAEMEFSEGFLKAQASLRGQYWTLQSWVPEMQDPQSWKGKEGT

How the values were obtained:
[1] = target: T1, FRETS-VWF73 fluorogenic substrate, …
[2] = target: Von Willebrand Factor (VWF) multimers, P04275

Protein | FRETS-VWF73 activity relative to wild-type ADAMTS13 [1] | VWF multimer assay (urea-denatured recombinant VWF) [2] | Ability to process VWF multimers under denaturing conditions [2] | vortex assay: processing of VWF multimers under turbulent flow [2] | Activity level (% relative to wild type ADAMTS13) VWFFRETS73 (% relative to wild type ADAMTS13) [1] | vortex assay: processing of VWF multimers under shear stress [2]
B1 | NGLY6 showed a reduced activity when compared to wild-type ADAMTS13 |  |  |  |  | 
B2 | The ability of NGLY1, 2, 3 and 4 was similar or higher when compared to wild-type ADAMTS13 | The VWF processing activity of NGLY3 and NGLY4 was similar to that of the wild-type ADAMTS13 |  |  |  | 
B3 | The ability of NGLY1, 2, 3 and 4 was similar or higher when compared to wild-type ADAMTS13 |  |  |  |  | 
B4 | The activity of NGLY5 was slightly reduced when compared to wild type ADAMTS13 | a reduced VWF processing activity was observed for NGLY2 and NGLY5 |  |  |  | 
B5 | The ability of NGLY1, 2, 3 and 4 was similar or higher when compared to wild-type ADAMTS13 | a reduced VWF processing activity was observed for NGLY2 and NGLY5 |  |  |  | 
B6 |  |  | ++++++ | resulted in loss of the high molecular weight multimers from the sample | 100 | 
B7 | The ability of NGLY1, 2, 3 and 4 was similar or higher when compared to wild-type ADAMTS13 | The VWF processing activity of NGLY3 and NGLY4 was similar to that of the wild-type ADAMTS13 | ++++++ |  | 125 | Under these conditions NGLY3 was fully active
B8 |  |  |  |  | 40 | 
